Km, kcat and kcat/Km data for 2 proteins are collected here from article PMC12347638, “Fungal Laccases with High and Medium Redox Potential: Is the T1 Center Potential a Key Characteristic of Catalytic Efficiency in Heterogeneous and Homogeneous Reactions?” (International Journal of Molecular Sciences, 2025).

Substrate in series [1]: CCn1c(=NN=c2sc3cc(S(=O)(=O)O)ccc3n2CC)sc2cc(S(=O)(=O)O)ccc21
Kind of series: purified protein. Format: biochemical, Metuloidea murashkinskyi. The conditions noted are these: air-saturated 0.1 M Na-citrate-phosphate buffer, pH 5.5, 23 °C, O2 co-substrate, free enzyme.

Substrate in series [2]: CCn1c(=NN=c2sc3cc(S(=O)(=O)O)ccc3n2CC)sc2cc(S(=O)(=O)O)ccc21
Kind of series: purified protein. In kind it is biochemical, Antrodiella faginea. Particulars: air-saturated 0.1 M Na-citrate-phosphate buffer, pH 5.5, 23 °C, O2 co-substrate, free enzyme.

B1: SmL (Lac2), Steccherinum murashkinskyi laccase (Metuloidea murashkinskyi) (protein)
chain: AQIGPVTDLHITNANISPDGFSRPAVLAGGTFPGPTIAGNTGDNFQITVFNDLTDPSMLTDTSIHWHGLFQKGTNWADGPAFVTQCPIITGQSFDYNFNVPGQAGTFWYHSHLSTQYCDGLRGPFVVYDPNDPNASLYDVDDDTTIITLADWYHTLAQQEPIGAAITADATLINGLGRSFTNTTASPLSVITVQSGKRYRMRLVSISCDPNYLFSIDGHDMTIIEVDGVNSQQLTVDQIQIFAAQRYSFVLNANQPVGNYWIRAQPNSGGQGFDGGINSAILRYEGATVEDPTTTAPTTFSNPLVETDLHPLADLGVPGQPFRGGADDPLVLNLAFANGRFSIDGVSFVPPTVPVLLQILSGAQNAQDLLPAGSVISLPSNSVIEVALPAGAAGGPHPFHLHGHNFAVVQSANNATPNYVNPIWRDTVSIGGTGDNVTIRFTTNNPGPWFLHCHIDWHLEAGFAIVFAEDIPDTASANPVPQAWSDLCPAYDQAHNISTATRQDFQILCICGILHVNFRQEERCGIS
notes: native secreted enzyme purified from culture liquid
By Km is commonly meant the concentration of substrate that gives half-maximal velocity. As a reminder, the kcat is the number of substrate molecules converted per active site and unit of time at saturation. The term kcat/Km denotes the second-order rate constant that governs catalysis at low substrate concentration. With B1, in series [1], the Km is 71.7 ± 2.9 µM, the kcat came to 33.3 ± 1.4 s⁻¹ and the kcat/Km amounted to 460000 M⁻¹ s⁻¹.

B2: AfL (LacA), Antrodiella faginea laccase (Antrodiella faginea) (protein)
chain: AIGPVADLKIVNANIQPDGFTRPAVLAGGTFPGPLIKGNKGDNFQLNVIDELENEDMLKSTSIHWHGFFQHGTNWADGPAFVNQCPITTGHSFLYNFHVPDQAGTFWYHSHLSTQYCDGLRGPMVVYDPHDPLKQLYDVDDESTVMTLADWYHTLARQEPPGPVTPDSTLINGLGRAPGQTTPSELAVLTVKRGTRYRIRLINISCEPNYHYSIDNHDLTVIEADGVSTQSLTVSSLTIFAGQRYSFILNANQPVGNYWIRAQPNDAADVTFNGGINSAILRYEGAPVAEPNTTAGPDNTPLLEVNIRPFVFTPVPGQPHAGGADFVKNLLFSFNGTNFQVDNVSFVPPTVPILLQILSGAHTAQDLMPAGSIIPLPKNAVIEFSMPGGVVGGGHPIHLHGHNFWVIRSANSSVYNYNDPVIRDVVNIGTTGDNVTIRFETNNPGPWFLHCHIDWHLDLGFAVVMAEDIPDAAAANPVPAAWNELCPLYDALTPGNQ
notes: as for B1
With B2, in series [2], the Km worked out at 4.9 ± 0.4 µM, the kcat was 32.7 ± 1.1 s⁻¹ and the kcat/Km is 6.67e+06 M⁻¹ s⁻¹.
